In patent publication US20200207835A1, “SRCP1-BASED THERAPY FOR DISEASES ASSOCIATED WITH PROTEIN AGGREGATION” (THE MEDICAL COLLEGE OF WISCONSIN, INC., priority 2017, published 2020):

What was measured:
^GFPHtt^ex1Q74 [1] = target: ^GFPHtt^ex1Q74 (Homo sapiens, UniProt P42858); assay: GFPHttex1Q74 aggregation in zebrafish spinal cord neurons; format: in vivo; design: encoding pEGFP huntingtin exon-1 with 23 (^GFPHtt^ex1Q23) or 74 (^GFPHtt^ex1Q74) glutamines; host or cells: zebrafish embryos injected with in vitro transcribed mRNA; spinal cord neurons imaged; conditions: zebrafish embryos injected with RNA
Experimental: To test the effect of ^RFPSRCP1 on ^GFPHtt^ex1Q74 aggregation in zebrafish, each plasmid was used for in vitro synthesis of mRNA (mMessage mMachine T7 transcription kit, ThermoFisher Scientific). Newly fertilized embryos were injected with either 200 pg mRNA each of ^RFPSRCP1 and ^GFPHtt^ex1Q74, or RFP alone and ^GFPHtt^ex1Q74. Embryos were developed until 54 hours post fertilization, at which time live specimens were anesthetized in Tricane, embedded in 1% low-melt agarose, and subjected to confocal microscopy. Spinal cord images were taken at 100 μm×100 μm and a scan depth of 50 μm. Single image planes from 488 nm and 568 nm excitation were collected. Images were then processed for threshold analysis using ImageJ and the total number puncta were scored.

^GFPHtt^ex1Q74 [2] = assay: GFPHttex1Q74 aggregation in transfected HEK293 cells (fluorescent/confocal microscopy, western blot, filter trap assay); format: cell-based, human
Experimental: Transfections were performed with Lipofectamine 2000 (Invitrogen by ThermoFisher Scientific) and adapted from the manufacturer's instructions. Briefly, cells were plated on either 12-well or 6-well plates and transfected at 50-70% confluency. For 12-well transfections, 0.833 μg of DNA per well was mixed with 50 μl of OptiMEM (Gibco by Life Technologies) media and incubated for 5 minutes at room temperature. Lipofectamine 2000 in a 2:1, μl of lipofectamine: μg DNA ratio was mixed with 50 μl of OptiMEM media and incubated for 5 minutes at room temperature. DNA and Lipofectamine were mixed and incubated for 15 minutes at room temperature. Fresh media was added to cells prior to the addition of DNA and lipofectamine. For 6-well transfections, the same protocol is followed except that 1.25 μg of DNA per well and 100 μl of OptiMEM for dilution was used. Media was changed 24 hours post-transfection and cells were harvested 48 hours post-transfection. Prior to harvesting, HEK293 cells were washed three times with ice-cold 1×PBS. Samples were then lysed with either 150 μl of ice-cold NETN (with protease inhibitor) or 1× Laemmli Buffer and sonicated twice for 5-8 seconds.
For proteasome inhibition, 30 hours post-transfection cells would be replenished with DMEM containing either DMSO or 10 μM MG132 (Sigma-Aldrich) for 18 hours. Prior to harvesting, HEK293 cells were washed three times with ice-cold 1×PBS and imaged by fluorescent microscopy with a 20× objective using the Evos FL Auto Imaging System. Cells were then lysed with either 150 μl of ice-cold NETN (with protease inhibitor) or 1× Laemmli Buffer and sonicated twice for 5-8 seconds.
For autophagy inhibition, 24 hours post-transfection cells would be replenished with DMEM and treated with either DMSO or 5 mM 3-Methyladenine (Sigma-Aldrich) for an additional 24 hours. Prior to harvesting, HEK293 cells were washed three times with ice-cold 1×PBS and imaged by fluorescent microscopy with a 20× objective using the Evos FL Auto Imaging System. Cells were then lysed with either 150 μl of ice-cold NETN (with protease inhibitor) or 1× Laemmli Buffer and sonicated twice for 5-8 seconds.
For HEK293s′, slides were prepared by placing coverslips in 6-well plates and incubating with poly-L-lysine hydrobromide (Sigma-Aldrich) for an hour at room temperature. Coverslips were rinsed with 1×PBS three times prior to plating HEK293 cells. HEK293 cells were then transfected and fixed by incubation in 4% paraformaldehyde for 20 minutes at room temperature. Coverslips were mounted with ProLong Gold Antifade reagent and imaged with a 20× objective using the Evos FL Auto Imaging System or with a 40× objective using the Leica TCS SP5 Confocal Microscope System. For confocal, Z-stack images were obtained at […] intervals at 1024×1024 pixel resolution and merged using Fiji.
Following sonication, lysates were subjected to BCA protein assay (ThermoFisher Scientific) and prepared for loading by the addition of 4× laemmli buffer and boiling for four minutes. Samples then loaded on SDS-polyacrylamide gels, ran at 175 V, and transferred onto an Immuno-blot PVDF membrane (Biorad) overnight at 30 V. Membranes were blocked in 5% milk in TBS with 0.1% Tween (TBST) and incubated in primary antibody overnight at 4° C. Following primary, membranes were washed for 10 minutes at room temperature three times with TBST and incubated in secondary for an hour at room temperature. Membranes were then washed for 10 minutes at room temperature three times with TBST and then incubated in buffer for enhanced chemiluminescence (50 mM Na2HPO4; 50 mM Na2CO3; 10 mM NaBO3.4H2O; 250 mM luminol; 90 mM coumaric acid).
For HEK293 lysates, BCA protein assay was used to determine protein concentration. […]

HD iPSC-derived neurons = assay: Neurite length in HD iPSC-derived neurons; format: cell-based, human; conditions: HD iPSC-derived neurons with 60 or 180 glutamines, overexpression of SRCP1
Experimental: iPSC transfections were performed with mixed cultures of astrocytes and neurons adhered to matrigel-coated coverslips, seeded at 2.6×10^4 cells/cm^2. iPSC transfections were performed using Lipofectamine 2000 according to the manufacturer's instructions and recommended DNA concentrations for a 24-well transfection.
Plated iPSC derived cultures of astrocytes and neurons were fixed with 4% paraformaldehyde in PBS for 20 minutes at room temperature, 3-5 days after transfection. Cells were permeabilized and blocked prior to antibody labeling. Nuclei were labeled with Hoechst nuclear dye. Primary antibodies used were rabbit anti-Tuj1 (Covance MRB-435P), chicken anti-Tuj1(Gene Tex, GTX85469) and mouse anti-GFAP (Cell Signaling, 3670). Images were taken using an upright Nikon fluorescent microscope with a 40× objective. The number of neural cells with GFP positive puncta was quantified using NIS Elements object quantification tool (Nikon) and neurite length was measured using NIS Elements length measurement tool (Nikon).
For control iPSCs, four biological replicates from two independent differentiations were analyzed and for HD iPSCs, four biological replicates were analyzed from four separate differentiations using two independent HD lines.

HEK293 cells = assay: Cell viability assay (CellTiter-Glo); format: cell-based, human; conditions: HEK293 transfected with RFPSRCP1 alone
Experimental: HEK293 cells were transfected as described with RFP or ^RFPSRCP1. Following transfections, cells were diluted to 500,000 cells/mL with 50,000 cells plated per well in duplicate from each transfection reaction in a 96-well plate. Serial dilutions were then performed down each column of the plate down to 390 cells per well. Cells were cultured for an additional 24 hours, then lysed using the CellTiter-Glo Kit (Promega). Luminescence was quantified between 565-700 nm wavelengths on a Spark microplate reader (Tecan) to determine cell viability.

[3] = HEK293, co-expression, fluorescent microscopy

Sequence of ^GFPHtt^ex1Q74 (P42858 with tags, fused parts or gaps limits assumed): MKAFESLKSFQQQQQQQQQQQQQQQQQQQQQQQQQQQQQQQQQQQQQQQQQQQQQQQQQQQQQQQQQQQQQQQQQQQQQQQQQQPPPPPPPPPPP
Sequence of ^GFPHtt^ex1Q74 (Homo sapiens, UniProt P42858) (P42858 with tags, fused parts or gaps): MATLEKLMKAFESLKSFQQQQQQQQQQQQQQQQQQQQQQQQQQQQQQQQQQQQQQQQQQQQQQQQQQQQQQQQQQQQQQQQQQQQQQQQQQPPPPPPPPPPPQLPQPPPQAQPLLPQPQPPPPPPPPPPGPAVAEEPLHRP

B1: SRCP1: Dictyostelium discoideum serine-rich chaperone protein 1 (SEQ ID NO:2), expressed in cells as RFP-tagged construct (protein)
chain: MTILSTFTSFSNPPKLNKSSFSSSTGSSLSMGSNSFAWGGGWGGFGGPKGGSFNVDIAGNLIWGVYGFIRGGVGLVKWRGLQKGCKQP
modifications: RFP tag; Dictyostelium discoideum AX4
- GFPHttex1Q74 puncta in spinal cord neurons (^GFPHtt^ex1Q74 [1]): significant reduction of ^GFPHtt^ex1Q74 puncta
- polyQ aggregation under proteasome inhibition (^GFPHtt^ex1Q74 [2]; HEK293, SRCP1 in the presence of proteasome inhibition): prevented polyQ aggregation
- levels of monomeric, soluble GFPHttex1Q74 (^GFPHtt^ex1Q74 [2]; HEK293, co-expression): no effect on the levels of monomeric, soluble
- soluble GFPHttex1Q74 levels under autophagy inhibition (^GFPHtt^ex1Q74 [2]; HEK293, co-expression of RFPSRCP1 plus 5 mM 3-MA): did not lead to a significant increase in soluble
- soluble GFPHttex1Q74 under proteasome inhibition (^GFPHtt^ex1Q74 [2]; HEK293, co-expression of RFPSRCP1 plus proteasome inhibitor, compared to proteasome inhibition alone): even further increase in the amount of soluble
- number of GFPHttex1Q74 puncta (^GFPHtt^ex1Q74 [2]; [3]): significantly decreases the number of puncta
- size of GFPHttex1Q74 puncta (^GFPHtt^ex1Q74 [2]; [3]): significantly decreases ^GFPHtt^ex1Q74 puncta size
- amount of GFPHttex1Q74 aggregates (^GFPHtt^ex1Q74 [2]; HEK293, co-expression, SDS-PAGE, filter trap assay, confocal microscopy): greatly reduced the amount of ^GFPHtt^ex1Q74 aggregates
- neurite length (HD iPSC-derived neurons): significantly increased neurite length
- toxicity (viability by CellTiter-Glo) (HEK293 cells): did not display any toxicity
